In publication PMC4830213, “Signaling mechanism by the Staphylococcus aureus two-component system LytSR: role of acetyl phosphate in bypassing the cell membrane electrical potential sensor LytS” (F1000Research, 2016):

Target: phosphorylated receiver domain of LytR (LytR^N-P) (Staphylococcus aureus strain Mu50) (UniProt P60609)
Test: native gel or EMSA; LytR^N and LytR^N-P (phosphorylated by acetyl phosphate) at 10, 20 and 40 µM on native-PAGE (10% in the methods, 15% in the legend), buffer kept at 4°C, Coomassie stain

phosphorylated receiver domain of LytR (LytR^N-P) (from UniProt P60609 1-134) (domain or fragment)
stoichiometry N: 2
